Data taken from PMC3929599.

Key:
[1] = biological target: mEGFP-labelled WASp (reciprocal tagging) (Drosophila); assay: FRET or BRET; FLIM-FRET, pixel-resolution 'Interaction' in the CNS of live Drosophila embryos at hours 15 and 21, and Polarplot estimate of the percentage of donor molecules undergoing FRET (hour not told for the percentages)
[2] = biological target: mCherry::WASp (Wiskott-Aldrich Syndrome protein labelled with mCherry at its amino terminus) (Drosophila); assay: as above
[3] = biological target: WASp labelled with mCherry at its carboxyl terminus (Drosophila); assay: FRET or BRET; FLIM-FRET (3D frequency-domain FLIM): mean mEGFP donor fluorescence lifetime in a CNS segment of live whole Drosophila embryos at hour 15; both proteins expressed in all neurons under elav-GAL4; baseline lifetime without FRET 2.56 ns; 10-20 embryos for each experiment
[4] = biological target: mCherry::WASp (Wiskott-Aldrich Syndrome protein labelled with mCherry at its amino terminus) (Drosophila); assay: as above

Sequence of mCherry::WASp (Wiskott-Aldrich Syndrome protein labelled with mCherry at its amino terminus) (Drosophila) (main, as listed by the source): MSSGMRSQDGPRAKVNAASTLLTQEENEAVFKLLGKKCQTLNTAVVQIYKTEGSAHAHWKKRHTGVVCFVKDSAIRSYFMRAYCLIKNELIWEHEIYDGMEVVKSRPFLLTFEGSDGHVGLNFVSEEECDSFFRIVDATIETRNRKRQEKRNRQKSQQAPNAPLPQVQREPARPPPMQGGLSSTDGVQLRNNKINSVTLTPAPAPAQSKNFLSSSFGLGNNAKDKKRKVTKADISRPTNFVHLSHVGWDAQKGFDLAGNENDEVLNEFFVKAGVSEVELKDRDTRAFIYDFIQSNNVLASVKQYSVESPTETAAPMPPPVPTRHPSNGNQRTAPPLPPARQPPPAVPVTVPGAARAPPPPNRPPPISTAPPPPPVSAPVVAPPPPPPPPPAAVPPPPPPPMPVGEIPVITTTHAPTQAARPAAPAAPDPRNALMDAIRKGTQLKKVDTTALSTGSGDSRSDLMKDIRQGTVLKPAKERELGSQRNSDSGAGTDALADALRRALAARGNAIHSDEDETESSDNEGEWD
Sequence of mEGFP-labelled WASp (reciprocal tagging) (Drosophila) (main, as listed by the source): as above
Sequence of WASp labelled with mCherry at its carboxyl terminus (Drosophila) (main, as listed by the source): as above

Substance | fraction of WASp interacting with Cdc42 [1] | fraction of Cdc42 interacting with WASp [2] | mean donor (mEGFP) fluorescence lifetime [3] | mean donor (mEGFP) fluorescence lifetime [4]
mCherry-labelled Cdc42 (reciprocal tagging) (from UniProt P40793 1-191) (natural protein) | 30% | – | – | –
mEGFP::Cdc42 (cell division control protein 42 homolog labelled with mEGFP) (from UniProt P40793 1-191) (natural protein) | – | 10% | 2.44 ns | 2.45 ns
